Measurements as given in article PMC9482650, “Quantitative fragmentomics allow affinity mapping of interactomes” (Nature Communications, 2022).

T1: RAPGEF6, Q8TEU7
T1 sequence (Q8TEU7 525-625, limits assumed, looked up): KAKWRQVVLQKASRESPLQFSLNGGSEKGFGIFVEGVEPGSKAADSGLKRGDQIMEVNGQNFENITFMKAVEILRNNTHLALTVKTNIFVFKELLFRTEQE

T2: LIN7C, Q9NUP9
T2 sequence (Q9NUP9 88-185, limits assumed, looked up): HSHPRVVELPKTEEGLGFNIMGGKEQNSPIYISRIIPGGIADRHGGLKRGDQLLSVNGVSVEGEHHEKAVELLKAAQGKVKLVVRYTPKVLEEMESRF

T3: DLG3_1, Q92796
T3 sequence (Q92796 125-227, limits assumed, looked up): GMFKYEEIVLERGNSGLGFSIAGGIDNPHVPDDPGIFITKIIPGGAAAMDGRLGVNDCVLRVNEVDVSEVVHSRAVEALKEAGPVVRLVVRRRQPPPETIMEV

T4: APBA2_2, Q99767
T4 sequence (Q99767 654-744, limits assumed, looked up): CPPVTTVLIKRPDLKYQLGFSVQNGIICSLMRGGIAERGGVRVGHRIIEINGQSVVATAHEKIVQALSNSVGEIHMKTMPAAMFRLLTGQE

T5: DLG3_2, Q92796
T5 sequence (Q92796 221-321, limits assumed, looked up): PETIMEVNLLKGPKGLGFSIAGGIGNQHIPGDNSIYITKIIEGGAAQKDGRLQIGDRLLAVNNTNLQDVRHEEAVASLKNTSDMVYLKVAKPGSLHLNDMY

T6: TX1BP3, O14907
T6 sequence (O14907 10-122, limits assumed, looked up): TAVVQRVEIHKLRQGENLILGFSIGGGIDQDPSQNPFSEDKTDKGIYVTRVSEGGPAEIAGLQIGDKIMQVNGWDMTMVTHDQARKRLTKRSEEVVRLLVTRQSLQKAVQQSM

T7: LIN7A, O14910
T7 sequence (O14910 103-200, limits assumed, looked up): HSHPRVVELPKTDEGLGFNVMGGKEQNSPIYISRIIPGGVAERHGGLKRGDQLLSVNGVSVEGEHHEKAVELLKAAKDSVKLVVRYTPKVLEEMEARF

T8: APBA2_1, Q99767
T8 sequence (Q99767 563-664, limits assumed, looked up): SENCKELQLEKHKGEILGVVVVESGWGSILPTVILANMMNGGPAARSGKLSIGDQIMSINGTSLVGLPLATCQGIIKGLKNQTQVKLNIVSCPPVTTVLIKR

T9: PARD3B_1, Q8TEW8
T9 sequence (Q8TEW8 196-299, limits assumed, looked up): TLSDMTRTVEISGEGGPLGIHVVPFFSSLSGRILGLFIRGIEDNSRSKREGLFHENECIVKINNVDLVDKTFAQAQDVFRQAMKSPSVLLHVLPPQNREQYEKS

T10: APBA1_1, Q02410
T10 sequence (Q02410 651-752, limits assumed, looked up): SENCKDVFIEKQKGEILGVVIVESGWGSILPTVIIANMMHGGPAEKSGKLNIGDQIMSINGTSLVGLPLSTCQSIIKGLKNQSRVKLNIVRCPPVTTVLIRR

T11: PCLO, Q9Y6V0
T11 sequence (Q9Y6V0 4491-4600, limits assumed, looked up): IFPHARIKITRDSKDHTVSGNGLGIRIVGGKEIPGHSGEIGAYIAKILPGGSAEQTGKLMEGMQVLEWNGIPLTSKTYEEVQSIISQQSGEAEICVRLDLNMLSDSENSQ

T12: SNTG2, Q9NY99
T12 sequence (Q9NY99 68-166, limits assumed, looked up): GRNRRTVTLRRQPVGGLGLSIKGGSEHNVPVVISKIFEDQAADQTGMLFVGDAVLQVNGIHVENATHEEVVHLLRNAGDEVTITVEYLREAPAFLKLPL


Columns and labels:
Assay in all cases: holdup assay
Set-up in all cases: key: below the threshold = too weak to quantify, mostly under pKd 3.1 to 4
Settings in all cases: plain residues with an end cap or a label only (N-terminal biotin on a linker: ado-ado)
[1] = biological target: T1, RAPGEF6, Q8TEU7
[2] = biological target: T2, LIN7C, Q9NUP9
[3] = biological target: T3, DLG3_1, Q92796
[4] = biological target: GRIP2_7, Q9C0E4
Sequence of GRIP2_7, Q9C0E4 (Q9C0E4 934-1023): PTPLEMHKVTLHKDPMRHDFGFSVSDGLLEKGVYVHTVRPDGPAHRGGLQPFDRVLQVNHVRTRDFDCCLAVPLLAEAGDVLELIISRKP

[5] = biological target: LIMK2, P53671
Sequence of LIMK2, P53671 (P53671 143-248): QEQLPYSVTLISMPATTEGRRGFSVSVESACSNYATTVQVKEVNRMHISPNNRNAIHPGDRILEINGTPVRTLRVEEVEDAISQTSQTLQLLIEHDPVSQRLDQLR

[6] = biological target: Inadl_10, Q8NI35
Sequence of Inadl_10, Q8NI35 (Q8NI35 1673-1763): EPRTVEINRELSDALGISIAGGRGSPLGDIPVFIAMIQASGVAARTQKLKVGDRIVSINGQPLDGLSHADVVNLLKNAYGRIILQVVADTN

[7] = biological target: MAGI3_2, Q5TCQ9
Sequence of MAGI3_2, Q5TCQ9 (Q5TCQ9 398-503): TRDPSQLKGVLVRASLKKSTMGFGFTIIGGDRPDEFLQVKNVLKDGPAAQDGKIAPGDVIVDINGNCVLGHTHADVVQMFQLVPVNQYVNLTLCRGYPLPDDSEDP

[8] = biological target: LNX1_2, Q8TBB1
Sequence of LNX1_2, Q8TBB1 (Q8TBB1 371-470): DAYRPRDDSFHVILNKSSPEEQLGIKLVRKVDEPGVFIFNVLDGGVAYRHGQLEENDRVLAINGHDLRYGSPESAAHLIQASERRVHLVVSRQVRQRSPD

[9] = biological target: T4, APBA2_2, Q99767
[10] = biological target: MAGI2_6, Q86UL8
Sequence of MAGI2_6, Q86UL8 (Q86UL8 1141-1229): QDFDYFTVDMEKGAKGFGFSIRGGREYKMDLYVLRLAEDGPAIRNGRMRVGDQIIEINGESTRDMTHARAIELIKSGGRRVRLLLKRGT

[11] = biological target: T5, DLG3_2, Q92796
[12] = biological target: HTRA2, O43464
Sequence of HTRA2, O43464 (O43464 355-458): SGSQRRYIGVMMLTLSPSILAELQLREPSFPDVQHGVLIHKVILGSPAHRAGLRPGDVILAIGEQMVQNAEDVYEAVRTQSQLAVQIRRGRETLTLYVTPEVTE

[13] = biological target: ARHGEF12, Q9NZN5-2
Sequence of ARHGEF12, Q9NZN5-2 (Q9NZN5 other isoform, or with tags, fused parts or gaps): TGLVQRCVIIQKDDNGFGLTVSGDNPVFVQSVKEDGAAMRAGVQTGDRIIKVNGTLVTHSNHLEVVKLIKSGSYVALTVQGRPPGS

[14] = biological target: T6, TX1BP3, O14907
[15] = biological target: T7, LIN7A, O14910
[16] = biological target: T8, APBA2_1, Q99767
[17] = biological target: T9, PARD3B_1, Q8TEW8
[18] = biological target: FRMPD3, Q5JV73
Sequence of FRMPD3, Q5JV73 (Q5JV73 12-100): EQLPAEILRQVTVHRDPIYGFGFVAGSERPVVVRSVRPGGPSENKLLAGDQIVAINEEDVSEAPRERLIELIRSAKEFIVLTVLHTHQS

[19] = biological target: GRASP, Q7Z6J2
Sequence of GRASP, Q7Z6J2 (Q7Z6J2 96-193): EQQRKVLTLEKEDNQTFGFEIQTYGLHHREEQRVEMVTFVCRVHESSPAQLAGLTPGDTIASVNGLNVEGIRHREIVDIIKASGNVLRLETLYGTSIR

[20] = biological target: Inadl_9, Q8NI35
Sequence of Inadl_9, Q8NI35 (Q8NI35 1530-1615): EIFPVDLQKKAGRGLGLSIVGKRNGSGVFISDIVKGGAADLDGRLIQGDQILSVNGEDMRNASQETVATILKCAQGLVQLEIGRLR

[21] = biological target: DLG1_3, Q12959
Sequence of DLG1_3, Q12959 (Q12959 457-571): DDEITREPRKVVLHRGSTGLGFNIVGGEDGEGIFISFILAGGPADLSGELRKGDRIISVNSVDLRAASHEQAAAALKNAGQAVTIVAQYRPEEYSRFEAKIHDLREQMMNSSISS

[22] = biological target: LNX1_1, Q8TBB1
Sequence of LNX1_1, Q8TBB1 (Q8TBB1 261-371): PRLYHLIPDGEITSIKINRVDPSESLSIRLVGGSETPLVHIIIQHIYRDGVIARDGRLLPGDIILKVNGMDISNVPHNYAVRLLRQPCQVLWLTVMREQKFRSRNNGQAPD

[23] = biological target: T10, APBA1_1, Q02410
[24] = biological target: T11, PCLO, Q9Y6V0
[25] = biological target: T12, SNTG2, Q9NY99

Binder	pKd [1]	pKd [2]	pKd [3]	pKd [4]	pKd [5]	pKd [6]	pKd [7]	pKd [8]	pKd [9]	pKd [10]	pKd [11]	pKd [12]	pKd [13]	pKd [14]	pKd [15]	pKd [16]	pKd [17]	pKd [18]	pKd [19]	pKd [20]	also measured
FVFESRKEIL [TBPL1, P62380]	below the threshold	3.95	below the threshold	below the threshold	below the threshold	below the threshold	below the threshold	below the threshold	below the threshold	below the threshold	below the threshold	below the threshold	below the threshold	below the threshold	below the threshold	below the threshold	4.12	below the threshold	4.72	below the threshold	pKd [21]: below the threshold; pKd [22]: below the threshold; pKd [23]: below the threshold; pKd [24]: below the threshold; pKd [25]: below the threshold
KPDKQEEFYA [SDC3, O75056]	below the threshold	below the threshold	below the threshold	below the threshold	below the threshold	below the threshold	below the threshold	below the threshold	below the threshold	below the threshold	4.05	below the threshold	below the threshold	below the threshold	below the threshold	below the threshold	4.65	4.02	below the threshold	below the threshold	pKd [21]: below the threshold; pKd [22]: below the threshold; pKd [23]: below the threshold; pKd [24]: below the threshold; pKd [25]: below the threshold
PLATCDETSI [SEMA4F, O95754]	below the threshold	below the threshold	below the threshold	below the threshold	below the threshold	below the threshold	below the threshold	below the threshold	below the threshold	3.87	4.3	below the threshold	3.81	below the threshold	below the threshold	below the threshold	below the threshold	below the threshold	below the threshold	below the threshold	pKd [21]: below the threshold; pKd [22]: below the threshold; pKd [23]: below the threshold; pKd [24]: below the threshold; pKd [25]: 4.55
DSEEELPTRL [GRK6, P43250]	below the threshold	below the threshold	below the threshold	below the threshold	below the threshold	below the threshold	below the threshold	below the threshold	below the threshold	below the threshold	3.66	below the threshold	3.57	below the threshold	below the threshold	below the threshold	4.51	below the threshold	4.16	3.69	pKd [21]: 3.73; pKd [22]: 3.82; pKd [23]: below the threshold; pKd [24]: below the threshold; pKd [25]: 3.57
GTMFLRETSL [GUCY1A2, P33402]	below the threshold	4.83	below the threshold	3.84	below the threshold	below the threshold	4.46	below the threshold	below the threshold	4.51	4.51	below the threshold	4.93	5.31	4.35	below the threshold	3.88	below the threshold	4.73	below the threshold	pKd [21]: 5.09; pKd [22]: 3.73; pKd [23]: below the threshold; pKd [24]: below the threshold; pKd [25]: 5.27
RDYTQSSSSL [GRM5, P41594]	below the threshold	below the threshold	below the threshold	below the threshold	below the threshold	below the threshold	below the threshold	below the threshold	below the threshold	3.49	3.96	below the threshold	4.28	3.53	below the threshold	below the threshold	3.82	below the threshold	4.33	below the threshold	pKd [21]: below the threshold; pKd [22]: below the threshold; pKd [23]: below the threshold; pKd [24]: below the threshold; pKd [25]: below the threshold
